Results: patent US20190175684A1
Values belong to the binder of their own block, whether it stands above or below them. Square brackets hold non-standard residues; d marks the D form. Ends that are not written are not given here.

What was measured:
[1] = target: annexin A1; test: QCM, peptide fixed on the sensor chip, Anxa1 injected at various doses
[2] = target: annexin A1; test: QCM (quartz crystal microbalance)

Kd [2]: 45.7 nM
B2: dTIT7 peptide (peptide)
peptide: [dT][dI][dT][dW][dP][dT][dM]

Kd [1]: 90.3 nM
B3: dSPT7 peptide (peptide)
peptide: [dS][dP][dT][dS][dL][dL][dF]

More lines, now with the values behind:

B1: dLRF7 peptide (peptide)
peptide: [dL][dR][dF][dP][dT][dV][dL]
Kd [1]: 31.2 nM

B4: dMPT7 peptide (peptide)
peptide: [dM][dP][dT][dL][dT][dF][dR]
Kd [1]: 298 nM

B5: dLLS7 peptide (peptide)
peptide: [dL][dL][dS][dW][dP][dS][dA]
Kd [1]: 54.2 nM
